1 molecule from doi:10.1101/746693 (bioRxiv, 2019) can be followed below.

In this assay the target is T1, Proteinase Activated Receptor-4 (PAR4)-YFP, wild type (human, UniProt Q96RI0 48-385).
T1 sequence (looked up): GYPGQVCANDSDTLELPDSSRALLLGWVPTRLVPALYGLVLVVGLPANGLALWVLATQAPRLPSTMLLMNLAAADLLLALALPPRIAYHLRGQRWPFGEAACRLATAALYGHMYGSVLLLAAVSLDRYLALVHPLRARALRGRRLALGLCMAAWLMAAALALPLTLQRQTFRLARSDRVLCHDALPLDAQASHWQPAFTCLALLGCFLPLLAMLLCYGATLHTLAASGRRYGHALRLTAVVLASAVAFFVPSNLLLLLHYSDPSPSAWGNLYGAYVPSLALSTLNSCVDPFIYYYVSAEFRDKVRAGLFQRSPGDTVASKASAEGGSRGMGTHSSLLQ
Nature of the assay: FRET or BRET.

B1: β-arrestin-1-renilla luciferase (natural protein, UniProt P49407 1-418, looked up)
chain: MGDKGTRVFKKASPNGKLTVYLGKRDFVDHIDLVDPVDGVVLVDPEYLKERRVYVTLTCAFRYGREDLDVLGLTFRKDLFVANVQSFPPAPEDKKPLTRLQERLIKKLGEHAYPFTFEIPPNLPCSVTLQPGPEDTGKACGVDYEVKAFCAENLEEKIHKRNSVRLVIRKVQYAPERPGPQPTAETTRQFLMSDKPLHLEASLDKEIYYHGEPISVNVHVTNNTNKTVKKIKISVRQYADICLFNTAQYKCPVAMEEADDTVAPSSTFCKVYTLTPFLANNREKRGLALDGKLKHEDTNLASSTLLREGANREILGIIVSYKVKVKLVVSRGGLLGDLASSDVAVELPFTLMHPKPKEEPPHREVPENETPVDTNLIELDTNDDDIVFEDFARQRLKGMKDDKEEEEDGTGSPQLNNR
For the molecule B1, the “EC50 of (N-Me-A)-YPGKF-NH2 for recruitment (BRET)” value turned out to be 6.8 µM, the “EC50 of A-(N-Me-Y)-PGKF-NH2 for recruitment (BRET)” value came to 14.2 µM, the “EC50 of AYPG-(Nα-Me-K)-F-NH2 for recruitment (BRET)” value was 12.2 µM and the “EC50 of AYPGK-(N-Me-F)-NH2 for recruitment (BRET)” value was found to be 10.4 µM. In addition, the “EC50 of Ac-AYPGKF-NH2 for recruitment (BRET)” value was 15 µM and the “EC50 of VYPGKF-NH2 for recruitment (BRET)” value came out at 33.8 µM.
